The source of these data is article PMC10683072 (2023).

For assay [1], the target named is T1, KQTSV peptide.
T1 chain: KQTSV
Briefly: diffusion lag time measurement with labeled peptide (Figure S12).

The target of assay [2] is T2, KQTSV peptide (tandem dimer of PDZ3).
T2 chain: KQTSV
The description is as above.

B1: PDZ3 PDZ3 (protein)
chain: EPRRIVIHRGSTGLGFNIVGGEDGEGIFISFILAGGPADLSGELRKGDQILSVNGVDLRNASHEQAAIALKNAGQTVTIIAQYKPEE
Take B1: the dissociation constant Kd in assay [1] turned out to be 670 nM. In other words, the sub-micromolar range.

B2: 2xPDZ3 (two tandem repeats of PDZ3) PDZ3 (protein)
chain: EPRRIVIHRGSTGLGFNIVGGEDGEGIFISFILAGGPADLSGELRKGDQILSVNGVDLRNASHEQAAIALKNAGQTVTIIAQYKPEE
In the case of B2, in assay [2], the affinity, expressed as Kd, was 680 nM.

Broadly, the Kd is the concentration at which binding is half-saturated. A lower Kd goes with higher affinity.
